Measurements from the RNAGym collection of RNA variant scans (doi:10.1021/acssynbio.7b00057).

B1: Pistol ribozyme (parent)
chain: GGGUCGUUGUUCCAUAAUCGCGUGGAUAUGGCACGCAAGUUUCUACCGGGCACCGUAAAUGUCCGACUGGAGCCGUUCGGGCGGCUAUAAACAGACCUCAGGCCCGAAGCGUGGCGGCACCUGCCGCCGGUGGUAAAAAAGAUCGGAAGAGCACACGUCU

Variants of: B1
Assay: aptazyme ON/OFF ratio, guanine; higher = stronger switching; co-transcriptional cleavage with and without guanine

Variant | aptazyme ON/OFF ratio
U7C U8C U11C C12A C13A | 1.3
U7C U8C U10A U11C C13A | 1.07
U7C U8C U10A U11C C13U | 1.03
U7C U8C U10A U11C C13G | 1.1
U7C U8G G9A U10A U11A C12U C13A | 1.17
U7C U8G G9A U10A U11A C12U C13G | 1.17
U7C U8G G9A U10A U11A C12U C13U | 1.16
U7C U8C U10A U11C C12G | 1.26
U7C U8C U10A U11C C12A | 1.29
U7C U8C U10A U11C C12U | 1.05
U7C U8C U10G U11C C13U | 1.16
U7C U8C U10G U11C C13A | 1.37
U7C U8C U10G U11C C13G | 1.16
U7C U8G G9A U10A C12A C13U | 1.19
U7C U8G G9A U10A C12A C13G | 1.1
U7C U8G G9A U10A C12A C13A | 1.17
U7C U8C U11A C12U C13A | 1.16
U7C U8C U11A C12U C13G | 1.13
U7C U8C U11A C12U C13U | 1.37
U7C U8C U10G U11C C12A C13G | 1.11
U7C U8C U10G U11C C12A C13A | 1.16
U7C U8C U10G U11C C12A C13U | 1.15
U7C U8C U10G U11G C13A | 1.24
U7C U8C U10G U11G C13U | 1.16

Variant | aptazyme ON/OFF ratio
U7C U8C U10G U11G C13G | 1.11
U7C U8C U11C C12A | 1.33
U7C U8C U11C C12G | 1.16
U7C U8C U11C C12U | 1.34
U7C U8C U11A C12G | 1.14
U7C U8C U11A C12A | 1.34
U7C U8C U11A C12U | 1.16
U7C U8C U10G C12A C13G | 1.08
U7C U8C U10G C12A C13U | 1.12
U7C U8C U10G C12A C13A | 1.1
U7C U8G G9A U10C C12U C13A | 1.08
U7C U8G G9A U10C C12U C13U | 1.1
U7C U8G G9A U10C C12U C13G | 1.07
U7C U8C U10A U11C | 1.03
U7C U8C U10A U11G | 1.37
U7C U8G G9A U10A U11G C12U | 1.38
U7C U8G G9A U10A U11G C12A | 1.06
U7C U8G G9A U10A U11G C12G | 1.25
U7C U8G G9A U10C C13A | 1.04
U7C U8G G9A U10C C13U | 1.92
U7C U8G G9A U10C C13G | 1.06
U7C U8G G9A U10A U11G C12G C13G | 1.39
U7C U8G G9A U10A U11G C12G C13A | 1.19
U7C U8G G9A U10A U11G C12G C13U | 1.33

Variant | aptazyme ON/OFF ratio
U7C U8C U10C U11C C12A C13A | 1.34
U7C U8C U10C U11C C12A C13U | 1.24
U7C U8C U10C U11C C12A C13G | 1.24
U7C U8C U10A U11A C12G C13G | 1.21
U7C U8C U10A U11A C12G C13U | 1.11
U7C U8C U10A U11A C12G C13A | 1.14
U7C U8G G9A U10A C12U | 1.19
U7C U8G G9A U10A C12G | 1.18
U7C U8G G9A U10A C12A | 1.26
U7C U8G G9A | 1.12
U7C U8C U10A U11A C13A | 1.26
U7C U8C U10A U11A C13G | 1.14
U7C U8C U10A U11A C13U | 1.29
U7C U8C U10A U11G C12U C13U | 1.15
U7C U8C U10A U11G C12U C13G | 1.15
U7C U8C U10A U11G C12U C13A | 1.11
U7C U8G G9A C12G | 1.29
U7C U8G G9A C12U | 1.19
U7C U8G G9A C12A | 1.34
U7C U8G G9A U10C U11A C12A | 1.15
U7C U8G G9A U10A | 1.18
U7C U8G G9A U10C | 3.63
U7C U8G G9A U10A C12G C13U | 1.31
U7C U8G G9A U10A C12G C13G | 1.46

Variant | aptazyme ON/OFF ratio
U7C U8G G9A U10A C12G C13A | 1.11
U7C U8G G9A C13U | 1.11
U7C U8G G9A C13A | 1.14
U7C U8G G9A C13G | 1.05
U7C U8C U11G C12A C13G | 1.11
U7C U8C U11G C12A C13U | 1.2
U7C U8C U11G C12A C13A | 1.14
U7C U8G C12A C13G | 1.08
U7C U8G C12A C13A | 1.22
U7C U8G C12A C13U | 1.27
U7C U8C U11G C12U C13A | 1.14
U7C U8C U11G C12U C13U | 1.22
U7C U8C U11G C12U C13G | 1.11
U7C U8C U10G C13G | 1.08
U7C U8C U10G C13A | 1.13
U7C U8C U10G C13U | 1.12
U7C U8G G9A U10A U11G C12U C13A | 1.24
U7C U8G G9A U10A U11G C12U C13G | 1.25
U7C U8G G9A U10A U11G C12U C13U | 1.35
U7C U8G G9A U10A C12U C13G | 1.17
U7C U8G G9A U10A C12U C13A | 1.18
U7C U8G G9A U10A C12U C13U | 1.27
U7C U8G G9A U10C C12U | 2.39
U7C U8G G9A U10C C12A | 1.18

Variant | aptazyme ON/OFF ratio
U7C U8G G9A U10C C12G | 1.23
U7C U8C U11C C12G C13G | 1.31
U7C U8C U11C C12G C13U | 1.33
U7C U8C U11C C12G C13A | 1.4
U7C U8C U10G U11G C12G C13U | 1.14
U7C U8C U10G U11G C12G C13G | 1.11
U7C U8C U10G U11G C12G C13A | 1.13
U7C U8C U10C U11A C12G C13A | 1.15
U7C U8C U10C U11A C12G C13G | 1.29
U7C U8C U10C U11A C12G C13U | 1.2
U7C U8C U10C U11A C12U C13A | 1.33
U7C U8C U10C U11A C12U C13U | 1.29
U7C U8C U10C U11A C12U C13G | 1.25
U7C U8C U10A U11G C12G | 1.41
U7C U8C U10A U11G C12A | 1.13
U7C U8C U10A U11G C12U | 1.25
U7C U8G G9A U10A U11C C12U | 1.05
U7C U8G G9A U10A U11C C12A | 1.21
U7C U8G G9A U10A U11C C12G | 1.25
U7C U8C U10C U11A C13U | 1.31
U7C U8C U10C U11A C13G | 1.18
U7C U8C U10C U11A C13A | 1.33
U7C U8C U10C U11A C12A C13A | 1.33
U7C U8C U10C U11A C12A C13G | 1.17

Variant | aptazyme ON/OFF ratio
U7C U8C U10C U11A C12A C13U | 1.45
U7C U8C U10G U11C C12A | 1.41
U7C U8C U10G U11C C12U | 1.22
U7C U8C U10G U11C C12G | 1.4
U7C U8C U10C U11G C13A | 1.2
U7C U8C U10C U11G C13G | 1.24
U7C U8C U10C U11G C13U | 1.34
U7C U8C U10G U11A C12U | 1.12
U7C U8C U10G U11A C12A | 1.3
U7C U8C U10G U11A C12G | 1.14
U7C U8G G9A U10C U11A | 1.24
U7C U8C U10G U11G C12U | 1.22
U7C U8C U10G U11G C12G | 1.2
U7C U8C U10G U11G C12A | 1.26
U7C U8C U10A U11C C12A C13G | 1.16
U7C U8C U10A U11C C12A C13U | 1.15
U7C U8C U10A U11C C12A C13A | 1.13
U7C U8C U10A U11C C12U C13G | 1.1
U7C U8C U10A U11C C12U C13A | 1.08
U7C U8C U10A U11C C12U C13U | 1.07
U7C U8C U11C C12U C13U | 1.43
U7C U8C U11C C12U C13A | 1.37
U7C U8C U11C C12U C13G | 1.2
U7C U8C U10A U11A C12U C13U | 1.16

Variant | aptazyme ON/OFF ratio
U7C U8C U10A U11A C12U C13A | 1.13
U7C U8C U10A U11A C12U C13G | 1.28
U7C U8C U10G C12U C13A | 1.08
U7C U8C U10G C12U C13G | 1.1
U7C U8C U10G C12U C13U | 1.13
U7C U8C U10G U11A C12A C13G | 1.12
U7C U8C U10G U11A C12A C13A | 1.11
U7C U8C U10G U11A C12A C13U | 1.25
U7C U8C U10G U11G C12U C13U | 1.08
U7C U8C U10G U11G C12U C13G | 1.12
U7C U8C U10G U11G C12U C13A | 1.1
U7C U8C U10C U11C C12U C13U | 1.19
U7C U8C U10C U11C C12U C13G | 1.15
U7C U8C U10C U11C C12U C13A | 1.31
U7C U8G C13U | 2.24
U7C U8G C13A | 1.25
U7C U8G C13G | 1.16
U7C U8C U10G U11G C12A C13A | 1.14
U7C U8C U10G U11G C12A C13G | 1.11
U7C U8C U10G U11G C12A C13U | 1.13
U7C U8C U10A U11C C12G C13G | 1.22
U7C U8C U10A U11C C12G C13U | 1.29
U7C U8C U10A U11C C12G C13A | 1.22
